The values below come from patent US20220002432A1 (VIRTUOSO BINCO, published 2022).

Broadly, the Kd is a measure of binding affinity in units of concentration. What is called koff is the first-order rate constant of dissociation. As a reminder, the kon is the second-order rate constant of association. For orientation: EC50 (read off the curve) means the concentration giving half of the maximal effect. What is called EC50 is the concentration giving half of the maximal effect. Lower therefore signals greater potency.

Test [1] addresses T1, recombinant human ICAM1 (human, UniProt P05362 28-480, limits assumed). The experiment in a line: SPR (Biacore 8K), antibody captured, antigen injected. In general terms: In SPR one partner is held on a chip, and binding of the other changes the refractive index at the surface.
Method: (§1) The binding kinetics of the anti-CD38 and anti-ICAM1 antibodies were evaluated on a Biacore 8K instrument (GE Healthcare). Biacore Series S CM5 sensor chips were immobilized with monoclonal mouse anti-human IgG (Fc) antibody (human antibody capture kit from GE Healthcare). Antibodies were captured on each flow cell. Serial 3-fold dilutions of each antigen were injected at a flow rate of 30 μl/min. Each sample was analyzed with 1 min association and 10 min dissociation at room temperature (25° C.). After each injection, the chip was regenerated using 3M MgCl₂. A 1:1 Langmuir model of simultaneous fitting of kₒₙ and koff was used for kinetics analysis.
The target of test [2] is T2, Rhesus-ICAM1 (rhesus, UniProt Q5NKV6 28-480, limits assumed).
T2 sequence (looked up): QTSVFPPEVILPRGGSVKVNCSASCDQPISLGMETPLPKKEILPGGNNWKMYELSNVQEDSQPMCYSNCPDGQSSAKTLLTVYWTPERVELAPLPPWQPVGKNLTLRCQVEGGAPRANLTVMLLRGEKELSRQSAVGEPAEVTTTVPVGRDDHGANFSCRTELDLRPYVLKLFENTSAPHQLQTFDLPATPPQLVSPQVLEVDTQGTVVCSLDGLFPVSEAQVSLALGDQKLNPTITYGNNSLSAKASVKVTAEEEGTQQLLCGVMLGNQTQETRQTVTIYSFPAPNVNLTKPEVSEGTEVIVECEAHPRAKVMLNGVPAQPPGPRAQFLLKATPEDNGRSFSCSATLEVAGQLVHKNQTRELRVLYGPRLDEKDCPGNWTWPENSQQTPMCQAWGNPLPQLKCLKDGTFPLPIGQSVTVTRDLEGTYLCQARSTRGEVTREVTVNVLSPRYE
Described as above.
Method: as §1

In test [3] the target is T1, recombinant human ICAM1. Briefly: ELISA: plate coated with 1 ug/ml recombinant human ICAM1 ECD, serially diluted antibody, OD450. On the technique in general: In an ELISA, binding on a coated surface is turned into a signal by an enzyme label.
Method: (§2) The plate was coated overnight at 4° C. with 1 μg/ml recombinant CD38 or ICAM1. After washing 3 times, the plate was blocked with 300 μl 1% BSA in PBST at 37° C. for 1 hour. Serially diluted antibodies were added and incubated at 37° C. for 1 hour. The plate was then washed 4 times with PBST and incubated with 1:5000 diluted 2nd antibody (Sigma, Cat #A0293) at 37° C. for 1 hour.
Test [4] deals with T2, Rhesus-ICAM1. Briefly: ELISA: plate coated with 1 ug/ml recombinant rhesus ICAM1 ECD, serially diluted antibody, OD450.
Method: as §2
In test [5] the target is T3, ICAM1 on the surface of DU145 cells (human, UniProt P05362 28-532).
T3 construct: whole, on cells
Briefly: flow cytometry, DU145 cells.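 Note: purified antibodies in dilution series bound to cells for 1 h at 4 °C, detected with a fluorescent secondary antibody (1 h, 4 °C, dark), read by flow cytometry.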 On the technique in general: Flow cytometry measures light scatter and fluorescence of single cells or particles in a stream.
Method: Harvested cells were centrifuged at 2000 rpm for 5 min and resuspended with 10-15 ml ice-cold culture medium. Cells were counted and then 3×10⁶ cells were resuspended per mL of blocking buffer (PBS plus 2% FBS). 100 μl of the cell suspension was dispensed into each well of a 96-well plate and incubated at room temperature for 10-20 min. […] While incubating, purified antibodies were diluted to the desired dilution with blocking buffer. After a 10-20 minutes incubation, cells were centrifuged for 5 min at 2000 rmp in a refrigerated centrifuge. Blocking buffer was aspirated, and cells were resuspended in 100 μl/well diluted antibodies and incubated for 1 hour at 4° C. The cells were then washed 3 times with PBS plus 2% FBS. After the final wash, the cells were resuspended in 100 μl 1:500 diluted secondary antibody (Invitrogen, Cat #: A10631) and incubated for 1 hour at 4° C. in the dark. The cells were then washed 3 times with 200 μl PBS by centrifuging at 2000 rpm for 5 min. After the last wash, the cells were resuspended in 300 μl cold PBS and analyzed on a FACSVerse™ (BD Biosciences) flow cytometer.

In test [6] the target is T4, cynomolgus CD38 ECD (cynomolgus, UniProt Q5VAN0 44-301, biotinylated on the AviTag during preparation).
T4 construct: also called Cyno-CD38; Avi-Cyno CD38 ECD
The experiment in a line: SPR (Biacore 8K), antibody captured, antigen injected.
Method: as §1

Test [7] has as its target recombinant human CD38 (human, UniProt P28907 43-300, limits assumed). The description is as above.
Method: as §1

T3 sequence (P05362 28-532): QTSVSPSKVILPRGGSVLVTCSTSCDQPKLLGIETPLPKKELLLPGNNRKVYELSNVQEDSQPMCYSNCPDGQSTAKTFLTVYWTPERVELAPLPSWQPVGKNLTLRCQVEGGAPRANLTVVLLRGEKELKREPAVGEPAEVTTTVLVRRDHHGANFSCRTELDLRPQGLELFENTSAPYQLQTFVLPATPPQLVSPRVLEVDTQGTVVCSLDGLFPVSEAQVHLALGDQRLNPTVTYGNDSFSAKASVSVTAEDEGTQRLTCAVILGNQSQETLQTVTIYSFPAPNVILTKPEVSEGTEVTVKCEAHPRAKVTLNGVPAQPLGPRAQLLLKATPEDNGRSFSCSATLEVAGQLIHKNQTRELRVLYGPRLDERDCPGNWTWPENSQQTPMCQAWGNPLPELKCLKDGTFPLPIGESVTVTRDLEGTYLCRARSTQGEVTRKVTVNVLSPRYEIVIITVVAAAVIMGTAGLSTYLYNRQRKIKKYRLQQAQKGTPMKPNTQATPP
T1 sequence (P05362 28-480 limits assumed): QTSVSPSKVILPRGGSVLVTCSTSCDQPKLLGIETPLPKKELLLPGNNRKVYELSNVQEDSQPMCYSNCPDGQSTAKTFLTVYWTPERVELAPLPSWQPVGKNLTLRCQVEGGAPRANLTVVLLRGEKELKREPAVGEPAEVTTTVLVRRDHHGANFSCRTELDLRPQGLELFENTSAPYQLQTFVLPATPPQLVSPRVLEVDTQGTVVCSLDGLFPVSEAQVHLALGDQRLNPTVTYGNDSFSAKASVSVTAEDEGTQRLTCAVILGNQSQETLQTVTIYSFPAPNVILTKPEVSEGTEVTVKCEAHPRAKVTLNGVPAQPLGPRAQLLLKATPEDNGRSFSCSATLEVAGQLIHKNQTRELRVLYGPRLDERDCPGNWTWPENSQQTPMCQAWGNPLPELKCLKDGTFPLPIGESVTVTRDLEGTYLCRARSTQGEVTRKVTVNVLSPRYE

B1: 8H1 (antibody, human IgG1, kappa, V domains shown)
VH: QSVEESGGRLVTPGTPLTLTCTASGFSLSNYYMSWVRQAPGKGLEWIGIISDSGSTYYASWAKGRFTISKTSTTVDLKITSPTTEDTATYFCARDWSYDSSSGYYYYDMDLWGPGTLVTVSA
VL: GYDMTQTPASVEVAVGGTVTIKCQASQSINSWLAWFQHKPGQPPKRLIYKASTLASGVSSRFKGSGSGTQFTLTISGVESADAATYYCQQGYSRSDGEHVFGGGTEVVVKR
notes: Rabbit-human chimeric anti-ICAM1: rabbit VH and VL on human IgG1 and kappa constant regions
With B1, in test [1], the Kd turned out to be 3.1 nM, the koff worked out at 0.000345 s⁻¹ and the kon amounted to 111000 M⁻¹ s⁻¹. In test [2], this molecule had a Kd of 2.92 nM, a koff of 0.00125 s⁻¹ and a kon of 427000 M⁻¹ s⁻¹. Also, the “EC50 (read off the curve)” value in test [3] was about 0.04 nM. For the same molecule, the “EC50 (read off the curve)” value in test [4] was about 0.04 nM. In test [5], the half-maximal effective concentration (EC50) was determined as 1.82 nM and the “Max Binding MFI” value worked out at 5270 MFI.

B2: 4H5 (antibody, human IgG1, kappa, V domains shown)
VH: QSVEESGGRLVTPGTPLTLTCTASGFSLSNYYMSWVRQAPGKGLEWIGIISDSGTTYYASWAKGRFTISKTSTTVDLKITSPTTEDTATYFCARDWSYDSSSGYYYYDMDLWGPGTLVTVSA
VL: GYDMTQTPASVEVAVGGTVTIKCQASQSINSWLVWFQHKPGQPPKRLIYKASTLASGVSSRFKGSGSGTHFTLTISGVESADAATYYCQQGYSRSDGEHVFGGGTEVVVKR
notes: as for B1
As for B2, in test [1], the Kd came to 3.39 nM, the koff is 0.000256 s⁻¹ and the kon came out at 75600 M⁻¹ s⁻¹. In addition, in test [2], binding was put at a Kd of 4.11 nM, the koff worked out at 0.000568 s⁻¹ and the kon amounted to 138000 M⁻¹ s⁻¹. Moreover, the “EC50 (read off the curve)” value in test [3] was about 0.04 nM. Also, the “EC50 (read off the curve)” value in test [4] is about 0.04 nM. Moreover, in test [5], the midpoint of the response, the EC50, lay at 1.31 nM and the “Max Binding MFI” value came to 4720 MFI.

B3: 14H1 (antibody, human IgG1, kappa, V domains shown)
VH: QSVEESGGRLVTPGTPLTLTCTVSGFSLSNYYMSWVRQAPGKGLEWIGIISDSGSTYYASWAKGRFTISKTSTTVDLSITSPTTEDTATYFCARDWSYDSTSGYYYYDMDLWGPGTLVTVSA
VL: AYDMTQTPASVEVAVGGTVTIKCQASQSINSWLSWFHQKPGQPPKRLIYKASTLASGVSSRFKGSGSGTQFTLTISGVESADAATYYCQQGYSRSDGEHVFGGGTEVVVKR
notes: as for B1
With B3, in test [1], the Kd came to 1.62 nM, the koff is 0.000237 s⁻¹ and the kon is 146000 M⁻¹ s⁻¹. In test [2], this molecule showed a Kd of 2.25 nM, a koff of 0.000434 s⁻¹ and a kon of 193000 M⁻¹ s⁻¹. Further, the “EC50 (read off the curve)” value in test [3] is about 0.04 nM. In addition, the “EC50 (read off the curve)” value in test [4] was about 0.04 nM. In test [5], the EC50 is 0.591 nM and the “Max Binding MFI” value is 4690 MFI.

B4: 4618_1 (antibody, human IgG1, kappa, V domains shown)
VH: EVQLLESGGGLVQPGGSLRLSCAASGFPFDVYAMSWVRQAPGKGLEWVSAISGSGGSTFYADSVKGRFTISRDNSKNTLYLQMNSLRAEDTAVYYCAKRGTYAYSFPTGFDYWGQGTLVTVSS
VL: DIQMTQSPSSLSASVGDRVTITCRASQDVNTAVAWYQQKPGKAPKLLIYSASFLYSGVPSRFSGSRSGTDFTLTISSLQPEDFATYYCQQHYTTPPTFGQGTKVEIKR
notes: Human IgG1 with the common anti-HER2 light chain; Library-derived anti-CD38
With B4, in test [6], the Kd was found to be 1.68 nM, the koff came to 0.00288 s⁻¹ and the kon stood at 1.71e+06 M⁻¹ s⁻¹. Besides, in test [7], the Kd is 3.81 nM, the koff came to 0.00188 s⁻¹ and the kon was 494000 M⁻¹ s⁻¹.

B5: 32018_7 (antibody, human IgG1, kappa, V domains shown)
VH: EVQLLESGGGLVQPGGSLRLSCAASGFPFGTYAMSWVRQAPGKGLEWVSAISGSGGSTFYADSVKGRFTISRDNSKNTLYLQMNSLRAEDTAVYYCAKRGTYGYSFPTGFDYWGQGTLVTVSS
VL: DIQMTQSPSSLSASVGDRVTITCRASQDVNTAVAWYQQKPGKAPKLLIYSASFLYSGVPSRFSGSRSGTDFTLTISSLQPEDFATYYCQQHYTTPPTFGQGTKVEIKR
notes: as for B4
As for B5, in test [6], the Kd was found to be 12.4 nM, the koff was determined as 0.0155 s⁻¹ and the kon is 1.25e+06 M⁻¹ s⁻¹. Further, in test [7], the Kd is 38.2 nM, the koff worked out at 0.0116 s⁻¹ and the kon is 304000 M⁻¹ s⁻¹.

B6: 4618_5 (antibody, human IgG1, kappa, V domains shown)
VH: EVQLLESGGGLVQPGGSLRLSCAASGFPFDAYAMSWVRQAPGKGLEWVSAISGSGGSTYYADSVKGRFTISRDNSKNTLYLQMNSLRAEDTAVYYCAKRGTYAYSFPTGFDYWGQGTLVTVSS
VL: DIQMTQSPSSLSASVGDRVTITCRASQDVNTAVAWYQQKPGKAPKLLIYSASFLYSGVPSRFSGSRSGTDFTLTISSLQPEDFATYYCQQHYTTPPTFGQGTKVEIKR
notes: as for B4
As to B6, in test [6], the Kd came to 1.48 nM, the off-rate constant (koff) came out at 0.00321 s⁻¹ and the kon worked out at 2.17e+06 M⁻¹ s⁻¹. Moreover, in test [7], the Kd is 2.23 nM, the koff turned out to be 0.00121 s⁻¹ and the kon worked out at 542000 M⁻¹ s⁻¹.

B7: 4618_5F_12 (antibody, human IgG1, kappa, V domains shown)
VH: EVQLLESGGGLVQPGGSLRLSCAASGFPFDAYAMSWVRQAPGKGLEWVSAISGSGGSTFYADSVKGRFTISRDNSKNTLYLQMNSLRAEDTAVYYCAKRGTYAYSYPTGFDYWGQGTLVTVSS
VL: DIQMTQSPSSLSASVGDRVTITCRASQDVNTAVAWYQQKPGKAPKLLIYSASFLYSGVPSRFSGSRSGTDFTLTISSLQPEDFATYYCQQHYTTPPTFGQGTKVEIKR
notes: Human IgG1 with the common anti-HER2 light chain
In test [6], B7 displayed a Kd of 0.83 nM, a koff of 0.00144 s⁻¹ and a kon of 1.74e+06 M⁻¹ s⁻¹. Moreover, in test [7], the Kd was 0.66 nM, the koff is 0.000295 s⁻¹ and the kon amounted to 449000 M⁻¹ s⁻¹.

B8: 4618_1_12 (antibody, human IgG1, kappa, V domains shown)
VH: EVQLLESGGGLVQPGGSLRLSCAASGFPFDVYAMSWVRQAPGKGLEWVSAISGSGGSTFYADSVKGRFTISRDNSKNTLYLQMNSLRAEDTAVYYCAKRGTYAYSYPTGFDYWGQGTLVTVSS
VL: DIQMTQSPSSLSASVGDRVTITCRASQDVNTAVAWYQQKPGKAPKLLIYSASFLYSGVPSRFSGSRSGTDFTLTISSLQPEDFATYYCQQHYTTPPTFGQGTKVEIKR
notes: as for B4
Turning to B8, in test [6], the Kd was determined as 0.62 nM, the koff was 0.00157 s⁻¹ and the kon is 2.53e+06 M⁻¹ s⁻¹. In test [7], the Kd was 0.42 nM, the koff was 0.000273 s⁻¹ and the kon turned out to be 657000 M⁻¹ s⁻¹.

B9: 4618_12 (antibody, human IgG1, kappa, V domains shown)
VH: EVQLLESGGGLVQPGGSLRLSCAASGFPFGVYAMSWVRQAPGKGLEWVSAISGSGGSTFYADSVKGRFTISRDNSKNTLYLQMNSLRAEDTAVYYCAKRGTYAYSYPTGFDYWGQGTLVTVSS
VL: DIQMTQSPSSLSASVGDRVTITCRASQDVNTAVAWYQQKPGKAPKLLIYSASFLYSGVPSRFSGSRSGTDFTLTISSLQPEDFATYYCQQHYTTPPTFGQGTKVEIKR
notes: as for B7
In test [6], B9 had a Kd of 1.65 nM, a koff of 0.00253 s⁻¹ and a kon of 1.53e+06 M⁻¹ s⁻¹. In test [7], the Kd is 1.79 nM, the koff stood at 0.00077 s⁻¹ and the kon is 430000 M⁻¹ s⁻¹.

B10: 4618_5_12 (antibody, human IgG1, kappa, V domains shown)
VH: EVQLLESGGGLVQPGGSLRLSCAASGFPFDAYAMSWVRQAPGKGLEWVSAISGSGGSTYYADSVKGRFTISRDNSKNTLYLQMNSLRAEDTAVYYCAKRGTYAYSYPTGFDYWGQGTLVTVSS
VL: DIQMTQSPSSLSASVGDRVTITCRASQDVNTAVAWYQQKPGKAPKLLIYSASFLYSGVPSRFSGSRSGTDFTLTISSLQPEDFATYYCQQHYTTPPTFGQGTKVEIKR
notes: as for B4
For B10, in test [6], binding was characterised by a dissociation constant (Kd) of 1.33 nM, the koff amounted to 0.00168 s⁻¹ and the kon amounted to 1.26e+06 M⁻¹ s⁻¹. In test [7], the Kd stood at 1.68 nM, the koff is 0.000596 s⁻¹ and the kon was 354000 M⁻¹ s⁻¹.

B11: 32218_2 (antibody, human IgG1, kappa, V domains shown)
VH: EVQLLESGGGLVQPGGSLRLSCAASGFPFDTYAMSWVRQAPGKGLEWVSAISGSGGSTYYADSVKGRFTISRDNSKNTLYLQMNSLRAEDTAVYYCAKRGTYAYSFPTGFDYWGQGTLVTVSS
VL: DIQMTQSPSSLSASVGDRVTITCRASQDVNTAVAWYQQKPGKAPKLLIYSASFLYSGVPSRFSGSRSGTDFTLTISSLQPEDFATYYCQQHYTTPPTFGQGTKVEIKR
notes: as for B4
Turning to B11, in test [6], the Kd came out at 7.43 nM, the koff was found to be 0.0156 s⁻¹ and the kon stood at 2.1e+06 M⁻¹ s⁻¹. Besides, in test [7], the Kd came out at 13.1 nM, the koff is 0.00887 s⁻¹ and the kon came to 675000 M⁻¹ s⁻¹.

B12: 32218_1 (antibody, human IgG1, kappa, V domains shown)
VH: EVQLLESGGGLVQPGGSLRLSCAASGFPFGVYAMSWVRQAPGKGLEWVSAISGSGGSTFYADSVKGRFTISRDNSKNTLYLQMNSLRAEDTAVYYCAKRGTYAYSFPTGFDYWGQGTLVTVSS
VL: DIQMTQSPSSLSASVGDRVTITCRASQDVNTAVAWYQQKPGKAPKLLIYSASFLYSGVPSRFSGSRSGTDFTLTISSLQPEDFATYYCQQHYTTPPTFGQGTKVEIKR
notes: as for B4
In test [6], B12 gave a Kd of 4.1 nM, a koff of 0.00496 s⁻¹ and a kon of 1.21e+06 M⁻¹ s⁻¹. Moreover, in test [7], the Kd came out at 3.61 nM, the koff is 0.00178 s⁻¹ and the kon turned out to be 493000 M⁻¹ s⁻¹.
